What was measured:
[1] = system: MS2 coat protein; test: apparent KD of MS2 coat protein, switch ON state; designed switch direction (-1 OFF switch, 1 ON switch): -1; higher = weaker reporter binding; conditions: FMN input: 0 or 200 uM; Eterna round: R93 (includes R88 designs)
How it was run: (§1)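 Apparent KD per design is the median of normalised cluster binding-curve fits. Designed RNA switches transcribed on-chip from Illumina sequencing clusters were titrated with SNAP-549-labelled MS2 coat protein in twofold steps from 0.7 or 1.5 nM to 3 µM, with 0.8–1.5 h down to 10–20 min per step. Buffer: 100 mM Tris-HCl pH 7.5, 80 mM KCl, 4 mM MgCl2, without or with constant ligand.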

[2] = system: MS2 coat protein; test: apparent KD of MS2 coat protein, switch OFF state (with FMN for OFF switches, without FMN for ON switches); designed switch direction (-1 OFF switch, 1 ON switch): -1; higher = weaker reporter binding; conditions: FMN input: 0 or 200 uM; Eterna round: R93 (includes R88 designs)
How it was run: as §1

Sequence	apparent KD of MS2 coat protein [1] [nM]	apparent KD of MS2 coat protein [2] [nM]
CUCUUGUAAGGAUAUGACUACAUAAAAAAAAAAAAAUGUAGUCAGAAGGUACAUGAGGAUCACCCAUGUACUAA [Brourd - Exclusion 4 - Sub 2]	20.8	26.2
CUCUUGUGAGGAUAUGAAAGAAAAGAAAAGAAAGAAAAGAAUCAGAAGGCACAUGAGGAUCACCCAUGUAAGAA [EteRNA is fun!]	37	79.7
CUCUUGUGAGGAUAUGCAAGAAAAGAAAAGAAAGAAAAGAAGCAGAAGGCACAUGAGGAUCACCCAUGUAAGAA [EteRNA is fun!]	53.3	25.9
GAAAAACAUGAGGAUCACCCAUGUAAGGAUAUGCUGAAAAACACGGAAAAAACGUGCAGCAGAAGGUACAAAAA [Mat - Exclusion 1 - Eli mod - D92]	15.8	28.1
GAAAAACAUGAGGAUCACCCAUGUCAGGAUAUACAAAAAUAAAUAAAAAUAAAAUAAAGUAGAAGGGACAAAAG [Mat - Same state - Mayanna Mod - D110]	52.9	57.3
GAAAAGAGAGGAUAUACUUUGGGAAAAGAAAAGAUGAUGUUACAUGAGGAUCACCCAUGUAGAAGGCUCAAAAA [Mat - Exclusion 2 - Mod - D156]	27.1	44.6
GAAAAGGUAGGAUAUACGAAAAAAAAGGGUAGAAAAAAAACACAUGAGGAUCACCCAUGUAGAAGGACCAAAAG [Mat - Exclusion 2 - Tesla mod - D30]	26.6	602
GAAAAGUCAGGAUAUGUGGAAAAAAUAAAAAAAAUAAAAACACAGAAGGGACAUGAGGAUCACCCAUGUAAAAG [Mat - Exclusion 4 - Mayanna - D141]	101	62.2
GAAAAGUCAGGAUAUGUGGAAAAAAUAAAAAAAAUAAAAACACAGAAGGGACAUGAGGAUCACCCAUGUUAAAA [Mat - Exclusion 4 - Mayanna - D137]	52.4	28.8
GAAAAGUGAGGAUAUUCGGAUAGGAAAACGAAAACCUAUCCGAAGAAGGCACAUGAGGAUCACCCAUGUGGAAA [Mat - Exaclusion 4 - Eli mod - D45]	30.1	31.5
GAAAAUCGAGGAUAUACAUGAGGAUCACCCAUGUCAAAAAAUGACUACACAAAAGAAAGUAGAAGGCGAUAAAG [Mat - Exclusion 3 - Mayanna mod - D130]	28.8	31.2
GAAAGGGCAGGAUAUGCGGAGAGAGAGAGAGAGAGAGAGAGACAUGAGGAUCACCCAUGUAGAAGGGCCGAAAG [salish99-ex2-08]	36.9	38.6
GAAGAACAUGAGGAUCACCCAUGUCAGGAUAUACAGAAGGGAAUAAUAUAAUCUGGAAGUAGAAGGGACAAGAA [Ex 1 May 45]	31.8	51.4
GAAGAACAUGAGGAUCACCCAUGUCAGGAUAUGAGCAAGGGAAUAAUAACUUGCGGAAUCAGAAGGGACAAGAA [Ex 1 May 51]	31.7	43.6
GACACCGGAGGAUAUACAAGUCCUUACUGUCUAAAACCAUGACAUGAGGAUCACCCAUGUAGAAGGCCGAAAAG [Atbela]	63.3	118
GCAAAGUGAGGAUAUACGCGAACAAAAAAAAAAAAGAAAGCGUAGAAGGCACAUGAGGAUCACCCAUGUCCAGC [Alfred 64% 2]	23.5	25.1
GCUGGCCAAGGAUAUACAUGAGGAUCACCCAUGUGAGAGAAAAAAGUGAGAAAGAAAAGUAGAAGGUGGUUAGG [salish99-ex3-114]	43.9	41

Sequence	apparent KD of MS2 coat protein [1] [nM]	apparent KD of MS2 coat protein [2] [nM]
GCUGGGCAAGGAUAUACAUGAGGAUCACCCAUGUGAGAGAAAAAAGUGAGAAAGAAAAGUAGAAGGUGCUUAGG [salish99-ex3-119]	45.8	77.9
GCUGUGGUAGGAUAUACAUGAGGAUCACCCAUGUGAGAGAAAAAAGUGAGAAAGAAAAGUAGAAGGACCGUAGG [salish99-ex3-101]	49	78.9
GCUUGUCUAGGAUAUACAUGAGGAUCACCCAUGUGAGAGAAAAAAGUGAGAAAGAAAAGUAGAAGGAGGUGAGG [salish99-ex3-81]	28.4	29.7
GGAAAACAUGAGGAUCACCCAUGUGAGGAUAUCGAUGUCCAAAAAAGAGUGCGGGACUCGAGAAGGCACUUGGA [salish99-ex1-43]	49.3	32.5
GGAACACAUGAGGAUCACCCAUGUCAGGAUAUGUAGAUAAAAAGAAAAUAAAAUAAAAGCAGAAGGGACAAAAG [May 4]	60.2	44.5
GGAUGCCUAGGAUAUACAUGAGGAUCACCCAUGUGAGAGAAAAAAGUGAGAAAGAAAAGUAGAAGGAGGUGUCG [salish99-ex3-91]	38	92.4
GGCUAGUCAGGAUAUACGAACAUGUCAAAAGACGUGAAGGGACAUGAGGAUCACCCAUGUAGAAGGGACUAGCA [salish99-ex2-12]	31.5	183
GGUUGACAAGGAUAUACAUGAGGAUCACCCAUGUGAGAGAAAAAAGUGAGAAAGAAAAGUAGAAGGUGUUGACG [salish99-ex3-62]	31	85
GGUUGGCGAGGAUAUACAUGAGGAUCACCCAUGUGAGAAAAAAAAGUGAGAAAGAAAAGUAGAAGGCGCUGACG [salish99-ex3-49]	40.1	157
GGUUGGGUAGGAUAUACAUGAGGAUCACCCAUGUGAGAGAAAAAAGUGAGAAAGAAAAGUAGAAGGGCUUGACG [salish99-ex3-67]	80.3	58.7
GUAAACCUAGGAUAUACAUGAGGAUCACCCAUGUAAAAUUUAAUAAAAAGAAAAUCAAGUAGAAGGAGGUAGAU [JR_Exc003_Sub1224]	25.4	29.3
GUAGAGUGAGGAUAUGAUUAAAAGAAGGGAAAGAGACAGCAUCAGAAGGCACAUGAGGAUCACCCAUGUAUGAA [JR_Exc004_Sub1224]	26.9	27.1
UAAAAACAUGAGGAUCACCCAUGUAAGGAUAUGCUGAAAAACACGGAAAAAACGUGCAGCAGAAGGUACAAAAU [Mat - Exclusion 1 - Eli mod - D98]	19	47.6
UAAAACCUAGGAUAUACAUGAGGAUCACCCAUGUGGCACUCCGCAGGCAUUGUUCCCAGUAGAAGGAGGACACG [Inan]	20.6	23.9
UAAAACUUAGGAUAUACAUGAGGAUCACCCAUGUCAAGACAAGGAAGGUCCUAAGCCGGUAGAAGGAAGAAAAU [Bexeora]	29.6	25.4
UAAAGACAUGAGGAUCACCCAUGUGAGGAUAUCGGAGAUAACAGAACAUCAAGUUCAACGAGAAGGCACAGAAA [JR_Exc001_Sub401]	47.4	94.7
UAAAGACAUGAGGAUCACCCAUGUGAGGAUAUCGGAGAUAACAGAACAUCAAGUUCAGCGAGAAGGCACAGGAA [JR_Exc001_Sub403]	47	65.5

— the supplement of paper PMC9170038
